# From patent US20210261648A1 (published 2021)
# T1: FcγRIIb extracellular domain with C-terminal His tag (human, UniProt P31994 43-217)
# T1 construct: extracellular domain; also called FcgRIIb
# T1 sequence (looked up): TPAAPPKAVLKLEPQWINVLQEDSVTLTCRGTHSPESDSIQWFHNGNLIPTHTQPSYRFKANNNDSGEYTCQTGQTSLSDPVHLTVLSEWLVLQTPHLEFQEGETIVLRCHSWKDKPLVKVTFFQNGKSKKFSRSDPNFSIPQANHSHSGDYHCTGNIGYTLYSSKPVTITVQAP
# T2: FcγRIIa type R (human, UniProt P12318 34-217)
# T2 chain: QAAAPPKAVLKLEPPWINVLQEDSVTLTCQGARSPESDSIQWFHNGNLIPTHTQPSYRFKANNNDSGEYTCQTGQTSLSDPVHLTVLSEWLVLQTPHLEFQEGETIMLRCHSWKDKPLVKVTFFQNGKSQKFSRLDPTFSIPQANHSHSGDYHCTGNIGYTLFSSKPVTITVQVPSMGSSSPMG
# Tests used:
# [1] = molecular target: T1, FcγRIIb extracellular domain with …; assay: SPR, captured antibody, FcgR analyte
# Protocol: (§1) Relative binding activities were calculated for the results of analyzing interactions with the respective FcγRs according to the following method.
# [2] = molecular target: T3, FcγRIa extracellular domain with C-terminal His tag (human, UniProt P12314 16-292); assay: SPR, captured antibody, FcgR analyte
# T3 construct: also called FcgRIa
# Protocol: as §1
# FcγRIIa type R = molecular target: T2, FcγRIIa type R; assay: SPR (Biacore), captured antibody, soluble FcγR
# T3 sequence (P12314 16-292): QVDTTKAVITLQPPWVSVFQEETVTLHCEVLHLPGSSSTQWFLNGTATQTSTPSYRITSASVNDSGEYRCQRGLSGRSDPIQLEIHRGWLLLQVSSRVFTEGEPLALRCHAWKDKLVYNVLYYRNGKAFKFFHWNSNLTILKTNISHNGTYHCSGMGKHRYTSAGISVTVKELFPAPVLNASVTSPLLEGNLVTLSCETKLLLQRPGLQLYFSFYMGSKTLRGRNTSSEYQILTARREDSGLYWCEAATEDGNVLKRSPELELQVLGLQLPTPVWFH
relative binding activity [1],relative binding activity [2],Kd (FcγRIIa type R),Binder
138 relative (IL6R-BF648/IL6R-L = 100),68 relative (IL6R-BF648/IL6R-L = 100),,"IL6R-BP129/IL6R-L (antibody, human IgG1, kappa) heavy: QVQLQESGPGLVKPSETLSLTCAVSGHSISHDHAWSWVRQPPGEGLEWIGFISYSGITNYNPSLQGRVTISRDNSKNTLYLQMNSLRAEDTAVYYCARSLARTTAMDYWGEGTLVTVSSASTKGPSVFPLAPSSKSTSGGTAALGCLVKDYFPEPVTVSWNSGALTSGVHTFPAVLQSSGLYSLSSVVTVPSSSLGTQTYICNVNHKPSNTKVDKKVEPKSCDKTHTCPPCPAPDLLGGDSVFLFPPKPKDTLMISRTPEVTCVVVDVSHEDPEVKFNWYVDGVEVHNAKTKPREEQDNSTYRVVSVLTVLHQDWLNGKEYKCKVSNKALPKPIEKTISKAKGQPREPQVYTLPPSRDELTKNQVSLTCLVKGFYPSDIAVEWESNGQPENNYKTTPPVLDSDGSFFLYSKLTVDKSRWQQGNVFSCSVMHEALHNHYTQESLSLSP light: not shown"
,,390 nM,"IL6R-BP428/IL6R-L (antibody, human IgG1, kappa, Alterations in EU numbering, introduced into IL6R-B3) heavy: QVQLQESGPGLVKPSETLSLTCAVSGHSISHDHAWSWVRQPPGEGLEWIGFISYSGITNYNPSLQGRVTISRDNSKNTLYLQMNSLRAEDTAVYYCARSLARTTAMDYWGEGTLVTVSSASTKGPSVFPLAPSSKSTSGGTAALGCLVKDYFPEPVTVSWNSGALTSGVHTFPAVLQSSGLYSLSSVVTVPSSSLGTQTYICNVNHKPSNTKVDKKVEPKSCDKTHTCPPCPAPDLLGDDSVFLFPPKPKDTLMISRTPEVTCVVVDVGEEDGEVKFNWYVDGVEVHNAKTKPREEQYNSTYRVVSVLTVLHQDWLNGKEYKCKVSNKALPRPIEKTISKAKGQPREPQVYTLPPSRDELTKNQVSLTCLVKGFYPSDIAVEWESNGQPENNYKTTPPVLDSDGSFFLYSKLTVDKSRWQQGNVFSCSVMHEALHNHYTQESLSLSP light: not shown"
,108 relative (IL6R-BF648/IL6R-L = 100),,"IL6R-BP181/IL6R-L (antibody, human IgG1, kappa) heavy: QVQLQESGPGLVKPSETLSLTCAVSGHSISHDHAWSWVRQPPGEGLEWIGFISYSGITNYNPSLQGRVTISRDNSKNTLYLQMNSLRAEDTAVYYCARSLARTTAMDYWGEGTLVTVSSASTKGPSVFPLAPSSKSTSGGTAALGCLVKDYFPEPVTVSWNSGALTSGVHTFPAVLQSSGLYSLSSVVTVPSSSLGTQTYICNVNHKPSNTKVDKKVEPKSCDKTHTCPPCPAPDLLGGDSVFLFPPKPKDTLMISRTPEVTCVVVDVSHEDGEVKFNWYVDGVEVHNAKTKPREEQYNSTYRVVSVLTVLHQDWLNGKEYKCKVSNAALPKPIEKTISKAKGQPREPQVYTLPPSRDELTKNQVSLTCLVKGFYPSDIAVEWESNGQPENNYKTTPPVLDSDGSFFLYSKLTVDKSRWQQGNVFSCSVMHEALHNHYTQESLSLSP light: not shown"
122 relative (IL6R-BF648/IL6R-L = 100),50 relative (IL6R-BF648/IL6R-L = 100),,"IL6R-BP083/IL6R-L (antibody, human IgG1, kappa) heavy: QVQLQESGPGLVKPSETLSLTCAVSGHSISHDHAWSWVRQPPGEGLEWIGFISYSGITNYNPSLQGRVTISRDNSKNTLYLQMNSLRAEDTAVYYCARSLARTTAMDYWGEGTLVTVSSASTKGPSVFPLAPSSKSTSGGTAALGCLVKDYFPEPVTVSWNSGALTSGVHTFPAVLQSSGLYSLSSVVTVPSSSLGTQTYICNVNHKPSNTKVDKKVEPKSCDKTHTCPPCPAPELLGGDSVFLFPPKPKDTLMISRTPEVTCVVVDVSHEDPEVKFNWYVDGVEVHNAKTKPREEQDNSTYRVVSVLTVLHQDWLNGKEYKCKVSNKALPKPIEKTISKAKGQPREPQVYTLPPSRDELTKNQVSLTCLVKGFYPSDIAVEWESNGQPENNYKTTPPVLDSDGSFFLYSKLTVDKSRWQQGNVFSCSVMHEALHNHYTQESLSLSP light: not shown"

# The remaining lines, values behind:
Binder,relative binding activity [1],relative binding activity [2],Kd (FcγRIIa type R)
"IL6R-2B261/IL6R-L (antibody, human IgG1, kappa) heavy: QVQLQESGPGLVKPSETLSLTCAVSGHSISHDHAWSWVRQPPGEGLEWIGFISYSGITNYNPSLQGRVTISRDNSKNTLYLQMNSLRAEDTAVYYCARSLARTTAMDYWGEGTLVTVSSASTKGPSVFPLAPSSKSTSGGTAALGCLVKDYFPEPVTVSWNSGALTSGVHTFPAVLQSSGLYSLSSVVTVPSSSLGTQTYICNVNHKPSNTKVDKKVEPKSCDKTHTCPPCPAPDLLGGDSVFLFPPKPKDTLMISRTPEVTCVVVDVSHEDPEVKFNWYVDGVEVHNAKTKPREEQDNSTYRVVSVLTVLHQDWLNGKEYKCKVSNKALPAPIEKTISKAKGQPREPQVYTLPPSRDELTKNQVSLTCLVKGFYPSDIAVEWESNGQPENNYKTTPPVLDSDGSFFLYSKLTVDKSRWQQGNVFSCSVMHEALHNHYTQESLSLSP light: not shown",115 relative (IL6R-BF648/IL6R-L = 100),100 relative (IL6R-BF648/IL6R-L = 100),
"IL6R-BP086/IL6R-L (antibody, human IgG1, kappa) heavy: QVQLQESGPGLVKPSETLSLTCAVSGHSISHDHAWSWVRQPPGEGLEWIGFISYSGITNYNPSLQGRVTISRDNSKNTLYLQMNSLRAEDTAVYYCARSLARTTAMDYWGEGTLVTVSSASTKGPSVFPLAPSSKSTSGGTAALGCLVKDYFPEPVTVSWNSGALTSGVHTFPAVLQSSGLYSLSSVVTVPSSSLGTQTYICNVNHKPSNTKVDKKVEPKSCDKTHTCPPCPAPELLGGDSVFLFPPKPKDTLMISRTPEVTCVVVDVSHEDPEVKFNWYVDGVEVHNAKTKPREEQYNSTYRVVSVLTVLHQDWLNGKEYKCKVSNAALPKPIEKTISKAKGQPREPQVYTLPPSRDELTKNQVSLTCLVKGFYPSDIAVEWESNGQPENNYKTTPPVLDSDGSFFLYSKLTVDKSRWQQGNVFSCSVMHEALHNHYTQESLSLSP light: not shown",137 relative (IL6R-BF648/IL6R-L = 100),72 relative (IL6R-BF648/IL6R-L = 100),
"IL6R-BP253/IL6R-L (antibody, human IgG1, kappa, S267E/L328F (EU numbering) in IL6R-B3; comparative control) heavy: QVQLQESGPGLVKPSETLSLTCAVSGHSISHDHAWSWVRQPPGEGLEWIGFISYSGITNYNPSLQGRVTISRDNSKNTLYLQMNSLRAEDTAVYYCARSLARTTAMDYWGEGTLVTVSSASTKGPSVFPLAPSSKSTSGGTAALGCLVKDYFPEPVTVSWNSGALTSGVHTFPAVLQSSGLYSLSSVVTVPSSSLGTQTYICNVNHKPSNTKVDKKVEPKSCDKTHTCPPCPAPELLGGPSVFLFPPKPKDTLMISRTPEVTCVVVDVEHEDPEVKFNWYVDGVEVHNAKTKPREEQYNSTYRVVSVLTVLHQDWLNGKEYKCKVSNKAFPAPIEKTISKAKGQPREPQVYTLPPSRDELTKNQVSLTCLVKGFYPSDIAVEWESNGQPENNYKTTPPVLDSDGSFFLYSKLTVDKSRWQQGNVFSCSVMHEALHNHYTQESLSLSP light: not shown",,,2.1 nM
"IL6R-BP191/IL6R-L (antibody, human IgG1, kappa) heavy: QVQLQESGPGLVKPSETLSLTCAVSGHSISHDHAWSWVRQPPGEGLEWIGFISYSGITNYNPSLQGRVTISRDNSKNTLYLQMNSLRAEDTAVYYCARSLARTTAMDYWGEGTLVTVSSASTKGPSVFPLAPSSKSTSGGTAALGCLVKDYFPEPVTVSWNSGALTSGVHTFPAVLQSSGLYSLSSVVTVPSSSLGTQTYICNVNHKPSNTKVDKKVEPKSCDKTHTCPPCPAPDLLGGDSVFLFPPKPKDTLMISRTPEVTCVVVDVSDEDGEVKFNWYVDGVEVHNAKTKPREEQYNSTYRVVSVLTVLHQDWLNGKEYKCKVSNAALPKPIEKTISKAKGQPREPQVYTLPPSRDELTKNQVSLTCLVKGFYPSDIAVEWESNGQPENNYKTTPPVLDSDGSFFLYSKLTVDKSRWQQGNVFSCSVMHEALHNHYTQESLSLSP light: not shown",,125 relative (IL6R-BF648/IL6R-L = 100),
"IL6R-BP082/IL6R-L (antibody, human IgG1, kappa) heavy: QVQLQESGPGLVKPSETLSLTCAVSGHSISHDHAWSWVRQPPGEGLEWIGFISYSGITNYNPSLQGRVTISRDNSKNTLYLQMNSLRAEDTAVYYCARSLARTTAMDYWGEGTLVTVSSASTKGPSVFPLAPSSKSTSGGTAALGCLVKDYFPEPVTVSWNSGALTSGVHTFPAVLQSSGLYSLSSVVTVPSSSLGTQTYICNVNHKPSNTKVDKKVEPKSCDKTHTCPPCPAPDLLGGDSVFLFPPKPKDTLMISRTPEVTCVVVDVSHEDPEVKFNWYVDGVEVHNAKTKPREEQYNSTYRVVSVLTVLHQDWLNGKEYKCKVSNKALPKPIEKTISKAKGQPREPQVYTLPPSRDELTKNQVSLTCLVKGFYPSDIAVEWESNGQPENNYKTTPPVLDSDGSFFLYSKLTVDKSRWQQGNVFSCSVMHEALHNHYTQESLSLSP light: not shown",136 relative (IL6R-BF648/IL6R-L = 100),74 relative (IL6R-BF648/IL6R-L = 100),
"IL6R-BP085/IL6R-L (antibody, human IgG1, kappa) heavy: QVQLQESGPGLVKPSETLSLTCAVSGHSISHDHAWSWVRQPPGEGLEWIGFISYSGITNYNPSLQGRVTISRDNSKNTLYLQMNSLRAEDTAVYYCARSLARTTAMDYWGEGTLVTVSSASTKGPSVFPLAPSSKSTSGGTAALGCLVKDYFPEPVTVSWNSGALTSGVHTFPAVLQSSGLYSLSSVVTVPSSSLGTQTYICNVNHKPSNTKVDKKVEPKSCDKTHTCPPCPAPELLGDDSVFLFPPKPKDTLMISRTPEVTCVVVDVSHEDPEVKFNWYVDGVEVHNAKTKPREEQYNSTYRVVSVLTVLHQDWLNGKEYKCKVSNKALPKPIEKTISKAKGQPREPQVYTLPPSRDELTKNQVSLTCLVKGFYPSDIAVEWESNGQPENNYKTTPPVLDSDGSFFLYSKLTVDKSRWQQGNVFSCSVMHEALHNHYTQESLSLSP light: not shown",152 relative (IL6R-BF648/IL6R-L = 100),19 relative (IL6R-BF648/IL6R-L = 100),
"IL6R-BP264/IL6R-L (antibody, human IgG1, kappa, E233D/G237D/P238D/H268E/P271G/Y296D/A330R (EU numbering) in IL6R-B3) heavy: QVQLQESGPGLVKPSETLSLTCAVSGHSISHDHAWSWVRQPPGEGLEWIGFISYSGITNYNPSLQGRVTISRDNSKNTLYLQMNSLRAEDTAVYYCARSLARTTAMDYWGEGTLVTVSSASTKGPSVFPLAPSSKSTSGGTAALGCLVKDYFPEPVTVSWNSGALTSGVHTFPAVLQSSGLYSLSSVVTVPSSSLGTQTYICNVNHKPSNTKVDKKVEPKSCDKTHTCPPCPAPDLLGDDSVFLFPPKPKDTLMISRTPEVTCVVVDVSEEDGEVKFNWYVDGVEVHNAKTKPREEQDNSTYRVVSVLTVLHQDWLNGKEYKCKVSNKALPRPIEKTISKAKGQPREPQVYTLPPSRDELTKNQVSLTCLVKGFYPSDIAVEWESNGQPENNYKTTPPVLDSDGSFFLYSKLTVDKSRWQQGNVFSCSVMHEALHNHYTQESLSLSP light: not shown",,,350 nM
